Experiment: yeast display, Sf9 membrane polyspecificity reagent, FACS + sequencing; frameworks hold sequencing errors
Method in brief: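 A synthetic nanobody library was expressed on Saccharomyces cerevisiae BJ5465 by galactose induction for 36–48 hours. The library was stained for 1 hour at 4 °C with 10% biotinylated, detergent-solubilized Sf9 membrane reagent and enriched with streptavidin microbeads before FACS. Low and high (top ~1%) gates were set on anti-HA fluorescence for expression and streptavidin fluorescence for reagent binding, and each polyreactivity label reflects the gate of origin.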

Sequence	polyreactivity (PSR sort gate)
QVQLVESGGGLVQAGGSLRLSCAASGSTFSYNAMGWYRQAPGKERELVAAINLRGGNTYYADSVKGRFTISRDNAKNTVYLQMNSLKPEDTAVYYCARTRRHSQNFDYWGQGTQVIVSS	high polyreactivity
QVQLVESGGGLVQAGGSLRLSCAASGRIFLSNALGWYSQAPGKERELVAALSWTGGSTYYADSVTGRFTISRDNAKNTVYLQMNSLKPEDTAVYYCAASTVGQTYSYYVDTYDYWGQGTQVTVSS	low polyreactivity
QVQLVESGGGLVQAGGSLRLSCAASGRIFRDNAMGGYRQAPGKERELVASISSRTGRTYYADSVKGRFTISRDNAKNTVYLQMNSLKPEDTAVYYCAAAFIYRGPGSLKFDYWGQGTQVTVSS	low polyreactivity
QVQLVESGGGLVQAGGSLRLSCAASGINISWYAMGLYRQAPGKERELVAAISRRGGRTYYADSVKGRFTSSRDNAKNTVYLEMKSMLPEDTAVYYCAVVERQVPGPADGSVQVYYYWGQGTQVTGSS	high polyreactivity
QVQLVESGGGLGQAGGSLSLTCAASGSIFARNAMGWYRQAPGKERELVAAISTGGGSTYYADSVKGRFTISRDNAQNTVYLQMNSLKPEETEVYYCAAVGRSYYGHDYWGQGTQVTVSS	low polyreactivity
QVQLVESGGGLVQAGGSLRLSCAASGSTFGGYAMGWYRQAPGKERELVAAISRRGVSTYYADSVKGRFTISRDNAKNTVYLQMNSLKPEDTAVYYFNKKYFYSRHGSWGQGSQVTVSS	high polyreactivity
QFQLVESGGGLVQAGGSLRLSCAASGRTFGGYAMGWYRQAAGKVREFVAALTYRGASTYYSDSVKGRFTISRDNAKNTVYFQMNSLKPEDTAVYYCAAEGSIKYFVGYTWGYNYWGQGTQVTVSS	low polyreactivity
QVQLVESGGGLVQAGGSLRLSCAASGSILRSNAMGWYRQAPGKERELVAAITFNGGSTYADSVKGRFTISRDNAKNTVYLQMNSLIPEDTAVYYCATGDGPSLFDYWGQGTQVTVSS	low polyreactivity
QVQLVESGGGLVQAGGSLRLSCAASGYIFYQYAMGWDRQAPGKERELVAGINWRGGSTYADSVKGRFTISRDNAKITVYLQMNSLKPEDTEVYYCNANQYRQDVFRRPSYYAYYYWGQGTQVTVSS	high polyreactivity
QVQLVESGGCLVQAGGSLRLSCAASGIIFQQYAMGWYRQAPGKARELVAAITYSGDGTYYADSVKGRFTISRDNAKNTVYLQMNSLKPEDTAVYDCAAYPRDPYKEYDYWGQGTQVTVSS	low polyreactivity
QVQLVESGGGLVQAGGSLRLSCAASGRTFGQYAMGWYRQAPGKERELVAAISWGGGRTYYADSVKGRFTISRDNAKNTVYLQMNSLKPEDTAVYYCNAVYSPRYYVGGYDYWGQGTQVTVSS	high polyreactivity
QVQLVESGGGLVQAGGSLRLSCAASGFTFDYYTMGWYRQAPGKERELVATITRSAGRTYYADSVKGRFTISRDNAKNTVYLQMNSLKPEDTAVYYCNADAYVYFDDGDYWGQGTQVTVSS	low polyreactivity
QVQLVESGGGLVQAGGSLRLSCAASGFTFARNAMGWYRQAPGKEWELGATISTSGGSTYYADSVKGRFTISRDNAKNTVYLQMNSLKPEDSAVYYFAASYWKGYRRDYWGQGTQVTVSS	low polyreactivity
QVQLVESGGGLVQAGGSLRLSCAASGNTFGIYAMGWYRQAPGKERELVAAISSGTSTNYADSVKGRFTISRDNAKNTVYLQMNSLKPEDTAVYYCNADDQYQDVREDYWGQGTQVTVSS	low polyreactivity
QVQLVESAGGLVQAGGSLRYSCAASGRTIYRYAMGWYRQAPGKERELVAAINRSTGRTYYADSVKGRFTISRDNAKNTVYLQMTSLNPEDTAVYYCARSDKKYPQASSREDYGYWGQGTQVTVSS	high polyreactivity
QVQLVESGAGLVQAGVSLRLSCAASGRTFRSNAMGWYRQAPGKERELVAAISWSGGSTYYADSVKGRFTISRDNAKNTVYLQMNSLKPEDTAVYDCAVGGSGYGRFGGGYARDYWGQGTLVTVSS	high polyreactivity
QVQLVESGGGLVQAGGSLRLSCAASGSISYFNAMGWYIQAPGKERELVAAISRGATTYADSVKGRFTISRDNAKNTVYLQMNSLKPEDTAVYYCNAGLRGNIRKSYRYDSWGQGTQVTVSS	high polyreactivity
